What was measured:
Format in all cases: physicochemical
azocasein [1] = test: Stability of Me-trypsin versus other trypsin analogs in a Part I composition (azocasein method); details: for % Activity Remaining: 45° C., 50% L-sorbose 1% borax, pH 5.79 (acetylated trypsin pH 7.54)
Method: Azocasein Method The following solutions are used in this assay: 1) Buffer solution: 0.05 M sodium phosphate buffer containing 0.9% sodium chloride, pH 7.6. 2) Substrate solution: 2 mg/ml azocasein in the buffer solution mentioned above. The assay is initiated by mixing 1 ml of an appropriately diluted (such that the enzyme activity is in the range of standard curve) enzyme composition in phosphate buffer with 2 ml of azocasein substrate solution (2 mg/ml). After incubation at 37° C. for 20 minutes, the mixture is removed from the incubator and 1 ml of trichloroacetic acid to (14% w/v) is added to stop the enzyme reaction. The mixture is vortexed well and allowed to stand at room temperature for 20 minutes. After centrifuging at 2500 rpm (with a Beckman GS-6R Centrifuge) for 15 minutes, the supernatant is filtered with a serum sampler. 2 ml of the clear yellow filtrate is then adjusted to a neutral pH with 2 ml of 0.5 N sodium hydroxide and the absorbance of 440 nm wavelength light is measured with a spectrophotometer. The amount of azocasein hydrolyzed is calculated based on a standard curve of known concentrations of azocasein solution developed under identical conditions. An enzyme activity unit (“AZ U”) is defined as that amount of enzyme which hydrolyzes 1 μg of azocasein substrate/minute at 37° C. […] The enzymes were solubilized in a Part I composition containing 50% (w/v) L-sorbose 1% (w/v) borax (Na2B4O7.10H2O), at pH 5.79, except the acetylated trypsin composition was at pH 7.54. The compositions were stored at 45° C. for 240 hours. At various time points, enzyme activity was assayed using the azocasein method.

azocasein [2] = test: Enzyme stability of the Example 6 multi-purpose composition versus trypsin or pancreatin compositions, azocasein method; details: Me-trypsin: Example 6 composition, trypsin/pancreatin: 1.4 mL of Example 3B analog in 120 mL of Example 2B
Method: Azocasein Method The following solutions are used in this assay: 1) Buffer solution: 0.05 M sodium phosphate buffer containing 0.9% sodium chloride, pH 7.6. 2) Substrate solution: 2 mg/ml azocasein in the buffer solution mentioned above. The assay is initiated by mixing 1 ml of an appropriately diluted (such that the enzyme activity is in the range of standard curve) enzyme composition in phosphate buffer with 2 ml of azocasein substrate solution (2 mg/ml). After incubation at 37° C. for 20 minutes, the mixture is removed from the incubator and 1 ml of trichloroacetic acid to (14% w/v) is added to stop the enzyme reaction. The mixture is vortexed well and allowed to stand at room temperature for 20 minutes. After centrifuging at 2500 rpm (with a Beckman GS-6R Centrifuge) for 15 minutes, the supernatant is filtered with a serum sampler. 2 ml of the clear yellow filtrate is then adjusted to a neutral pH with 2 ml of 0.5 N sodium hydroxide and the absorbance of 440 nm wavelength light is measured with a spectrophotometer. The amount of azocasein hydrolyzed is calculated based on a standard curve of known concentrations of azocasein solution developed under identical conditions. An enzyme activity unit (“AZ U”) is defined as that amount of enzyme which hydrolyzes 1 μg of azocasein substrate/minute at 37° C. […] The trypsin or pancreatin compositions were prepared by dispersing 1.4 mL of Example 3B (wherein Me-trypsin was replaced by either trypsin or pancreatin) in 120 mL of Example 2B. The compositions were incubated at room temperature, 30° and 35° C. At the appointed time, aliquots were tested for enzyme activity by the azocasein method. Activity levels were compared with initial levels and expressed as percent remaining activity.

azocasein [3] = test: Stability of Et-trypsin and trypsin in a disinfecting composition (Example 2B), azocasein method; details: 37° C., Example 2B composition, 50 μg/ml
Method: Azocasein Method The following solutions are used in this assay: 1) Buffer solution: 0.05 M sodium phosphate buffer containing 0.9% sodium chloride, pH 7.6. 2) Substrate solution: 2 mg/ml azocasein in the buffer solution mentioned above. The assay is initiated by mixing 1 ml of an appropriately diluted (such that the enzyme activity is in the range of standard curve) enzyme composition in phosphate buffer with 2 ml of azocasein substrate solution (2 mg/ml). After incubation at 37° C. for 20 minutes, the mixture is removed from the incubator and 1 ml of trichloroacetic acid to (14% w/v) is added to stop the enzyme reaction. The mixture is vortexed well and allowed to stand at room temperature for 20 minutes. After centrifuging at 2500 rpm (with a Beckman GS-6R Centrifuge) for 15 minutes, the supernatant is filtered with a serum sampler. 2 ml of the clear yellow filtrate is then adjusted to a neutral pH with 2 ml of 0.5 N sodium hydroxide and the absorbance of 440 nm wavelength light is measured with a spectrophotometer. The amount of azocasein hydrolyzed is calculated based on a standard curve of known concentrations of azocasein solution developed under identical conditions. An enzyme activity unit (“AZ U”) is defined as that amount of enzyme which hydrolyzes 1 μg of azocasein substrate/minute at 37° C. The following is an example of the stability of Et-trypsin or Me-trypsin in a disinfecting composition of the present invention as compared to an analogous composition containing trypsin. The enzymes were solubilized in the Example 2B composition. The compositions were stored at 37° or 50° C. for 8 days or 30 hours, respectively. At various time points, enzyme activity was assayed using the azocasein method.

Substance: methyl trypsin [Me-Trypsin]
- % Activity Remaining (azocasein [1]; 0 Hr.): 100.0%
- % Activity Remaining (azocasein [1]; 64 Hr.): 89.4%
- % Activity Remaining (azocasein [1]; 96 Hr.): 86.3%
- % Activity Remaining (azocasein [1]; 120 Hr.): 84.7%
- % Activity Remaining (azocasein [1]; 144 Hr.): 82.2%
- % Activity Remaining (azocasein [1]; 240 Hr.): 76.1%
- enzyme stability in a Part I composition over other trypsin related enzyme compositions (azocasein [1]; summary of Table 1): superior enzyme stability
- % Remaining Activity (azocasein [2]; 30° C., 1 week): 97.0%
- % Remaining Activity (azocasein [2]; 30° C., 2 weeks): 97.2%
- % Remaining Activity (azocasein [2]; 30° C., 3 weeks): 91.1%
- % Remaining Activity (azocasein [2]; 30° C., 4 weeks): 90.6%
- % Remaining Activity (azocasein [2]; 30° C., 6 weeks): 85.8%
- % Remaining Activity (azocasein [2]; 30° C., 8 weeks): 83.0%
- % Remaining Activity (azocasein [2]; 35° C., 1 week): 82.1%
- % Remaining Activity (azocasein [2]; 35° C., 2 weeks): 75.0%
- % Remaining Activity (azocasein [2]; 35° C., 3 weeks): 71.4%
- % Remaining Activity (azocasein [2]; 35° C., 4 weeks): 65.2%
- % Remaining Activity (azocasein [2]; 35° C., 6 weeks): 55.9%
- % Remaining Activity (azocasein [2]; 35° C., 8 weeks): 50.3%
- % Remaining Activity (azocasein [2]; RT, 1 week): 101.3%
- % Remaining Activity (azocasein [2]; RT, 2 weeks): 99.6%
- % Remaining Activity (azocasein [2]; RT, 3 weeks): 98.4%
- % Remaining Activity (azocasein [2]; RT, 4 weeks): 98.1%
- % Remaining Activity (azocasein [2]; RT, 6 weeks): 96.0%
- % Remaining Activity (azocasein [2]; RT, 8 weeks): 96.4%

Substance: Trypsin [Native Trypsin, reference compound]
- % Activity Remaining (azocasein [1]; 0 Hr.): 100.0%
- % Activity Remaining (azocasein [1]; 64 Hr.): 62.9%
- % Activity Remaining (azocasein [1]; 96 Hr.): 56.8%
- % Activity Remaining (azocasein [1]; 120 Hr.): 53.1%
- % Activity Remaining (azocasein [1]; 144 Hr.): 49.1%
- % Activity Remaining (azocasein [1]; 240 Hr.): 41.4%
- % Activity Remaining (azocasein [3]; 1 Hour): 86.8%
- % Activity Remaining (azocasein [3]; 2 Hours): 80.0%
- % Activity Remaining (azocasein [3]; 4 Hours): 72.7%
- % Activity Remaining (azocasein [3]; 6 Hours): 62.9%
- % Activity Remaining (azocasein [3]; 8 Hours): 56.6%
- % Activity Remaining (azocasein [3]; 1 day): 37.6%
- % Activity Remaining (azocasein [3]; 2 days): 26.8%
- % Activity Remaining (azocasein [3]; 4 days): 17.9%
- % Activity Remaining (azocasein [3]; 8 days): 11.2%
- % Remaining Activity (azocasein [2]; 30° C., 1 week): 65.7%
- % Remaining Activity (azocasein [2]; 30° C., 2 weeks): 54.6%
- % Remaining Activity (azocasein [2]; 30° C., 3 weeks): 47.1%
- % Remaining Activity (azocasein [2]; 30° C., 4 weeks): 44.9%
- % Remaining Activity (azocasein [2]; 30° C., 6 weeks): 35.8%
- % Remaining Activity (azocasein [2]; 30° C., 8 weeks): 30.4%
- % Remaining Activity (azocasein [2]; 35° C., 1 week): 30.8%
- % Remaining Activity (azocasein [2]; 35° C., 2 weeks): 19.9%
- % Remaining Activity (azocasein [2]; 35° C., 3 weeks): 13.3%
- % Remaining Activity (azocasein [2]; 35° C., 4 weeks): 12.8%
- % Remaining Activity (azocasein [2]; 35° C., 6 weeks): 8.8%
- % Remaining Activity (azocasein [2]; 35° C., 8 weeks): 5.2%
- % Remaining Activity (azocasein [2]; RT, 1 week): 93.5%
- % Remaining Activity (azocasein [2]; RT, 2 weeks): 86.8%
- % Remaining Activity (azocasein [2]; RT, 3 weeks): 82.5%
- % Remaining Activity (azocasein [2]; RT, 4 weeks): 79.5%
- % Remaining Activity (azocasein [2]; RT, 6 weeks): 71.0%
- % Remaining Activity (azocasein [2]; RT, 8 weeks): 64.2%

From patent publication US6358897B1, “Alkyl trypsin compositions and methods of use in contact lens cleaning and disinfecting systems” (Alcon Laboratories, Inc., priority 1996, dated 2002)
